The text below walks through data of patent EP4285935A1 (Emergence Therapeutics AG, dated 2023).

The target of assay [1] is T1, N-terminal Flag-tagged human Nectin-4 on transfected MDA-MB231 cells (human, UniProt Q96NY8 32-510).
T1 construct: whole, on cells; also called PVRL4; Flag-tagged Nectin-4; not shown: N-terminal Flag tag from vector p3XFLR4.C1
T1 sequence (looked up): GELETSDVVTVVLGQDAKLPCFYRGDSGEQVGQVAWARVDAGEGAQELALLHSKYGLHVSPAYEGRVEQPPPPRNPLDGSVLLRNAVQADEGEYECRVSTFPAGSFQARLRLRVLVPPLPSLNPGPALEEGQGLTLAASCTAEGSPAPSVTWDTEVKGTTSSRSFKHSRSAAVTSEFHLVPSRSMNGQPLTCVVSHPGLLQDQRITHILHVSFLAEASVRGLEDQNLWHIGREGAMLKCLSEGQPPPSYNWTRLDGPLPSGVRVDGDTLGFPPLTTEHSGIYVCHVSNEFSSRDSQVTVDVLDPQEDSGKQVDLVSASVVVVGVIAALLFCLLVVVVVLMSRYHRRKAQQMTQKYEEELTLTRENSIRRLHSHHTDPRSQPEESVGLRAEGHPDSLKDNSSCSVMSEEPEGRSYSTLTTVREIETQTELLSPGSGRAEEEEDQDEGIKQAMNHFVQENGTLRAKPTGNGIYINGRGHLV
The experiment in a line: flow cytometry on MDA-MB231 cells transfected with N-terminal Flag-tagged Nectin-4, dose range 0.3 ng/mL - 5 µg/mL (FIG. 1). For orientation: A flow cytometer gives signals particle by particle.

The target in assay [2] is T2, human Nectin-4 on cells (human, UniProt Q96NY8 32-510).
T2 construct: whole, on cells; also called CHO cells transfected with human Nectin-4 cDNA; Nectin-4 expressed by normal differentiated human keratinocytes (NHEK)
T2 sequence (looked up): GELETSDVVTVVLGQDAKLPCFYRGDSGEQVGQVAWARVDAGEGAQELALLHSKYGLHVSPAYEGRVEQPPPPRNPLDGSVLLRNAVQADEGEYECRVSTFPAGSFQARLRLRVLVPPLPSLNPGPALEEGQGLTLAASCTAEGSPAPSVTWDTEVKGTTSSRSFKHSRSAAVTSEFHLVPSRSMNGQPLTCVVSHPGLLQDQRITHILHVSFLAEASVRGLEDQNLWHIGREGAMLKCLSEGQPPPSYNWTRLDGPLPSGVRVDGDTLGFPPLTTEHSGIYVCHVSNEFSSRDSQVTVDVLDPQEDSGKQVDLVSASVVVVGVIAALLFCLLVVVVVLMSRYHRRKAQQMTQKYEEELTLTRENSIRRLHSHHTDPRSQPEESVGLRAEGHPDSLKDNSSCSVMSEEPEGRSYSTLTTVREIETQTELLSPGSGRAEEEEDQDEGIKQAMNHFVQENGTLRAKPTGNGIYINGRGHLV
As to the kind of experiment: flow cytometry on normal differentiated human keratinocytes (NHEK), dose range 8 pM - 33 nM (FIG. 15); Ch-5A12.2 is the reference of the comparison.

B1: Ch-5A12.2 (antibody, V domains shown)
VH: QIQLQQSGAELVKPGASVTLSCKTSGFTFNSMYISWLKQKPGQSLEWIAWIYAGTGGTRFNQKFTGKVQLTVDTSSSTAYMQFSSLTTDDSAIYYCAIRSGFVPMDYWGQGTSVTVSS
VL: SIVMTQTPKFLLVSAGDRVTITCKASQSVSNDVAWYQQKPGQSPKLLIYYASNRYTGVPDRFTGSGYGTDFTFTISTVQAEDLAVYFCQQDYSSPWTFGGGTKLEIK
notes: also called 5A12.2 mAb; Ch-5A12.2 mAb
Turning to B1, the binding result in assay [1] and in assay [2] was “binds” each time.
